Source: the Human Domainome abundance scans (Beltran et al. 2025)
± gives the uncertainty stated by the source.

B1: Zinc finger MYM-type protein 3, residues 589 to 668; numbered along this chain, Q14202 (parent)
chain: LSCHYCHSLFSGKPEVLDWQDQVFQFCCRDCCEDFKRLRGVVSQCEHCRQEKLLHEKLRFSGVEKSFCSEGCVLLYKQDF

Variants of: B1
Assay: abundance fitness (aPCA) (normalised: wild type 0, dead -1); higher = more abundant; growth selection in yeast, the domain comes from the species named
Conditions: Homo sapiens

Abundance fitness: each site, then its substitutions
E33: L -0.171 ± 0.042 | N -0.018 ± 0.088 | P -0.811 ± 0.091 | Q -0.038 ± 0.044 | R -0.193 ± 0.04 | T -0.093 ± 0.058 | V -0.081 ± 0.042 | W -0.254 ± 0.047 | Y -0.173 ± 0.088
D34: A 0.064 ± 0.047 | E -0.01 ± 0.045 | F -0.192 ± 0.071 | G 0.024 ± 0.04 | H -0.057 ± 0.071 | I -0.18 ± 0.11 | K -0.008 ± 0.063 | M 0.17 ± 0.044 | P -0.384 ± 0.076 | Q -0.136 ± 0.05 | R -0.093 ± 0.042 | S -0.164 ± 0.045 | T -0.178 ± 0.056 | V -0.079 ± 0.058 | W -0.1 ± 0.054 | Y 0.105 ± 0.083
F35: A -0.079 ± 0.041 | C -0.467 ± 0.082 | D -0.549 ± 0.092 | E -0.157 ± 0.045 | G -0.317 ± 0.042 | H -0.219 ± 0.067 | I -0.624 ± 0.084 | K -0.529 ± 0.063 | L -0.641 ± 0.055 | M -0.071 ± 0.047 | N -0.924 ± 0.39 | P -0.842 ± 0.077 | Q -0.421 ± 0.071 | R -0.726 ± 0.052 | S -0.411 ± 0.055 | T -0.607 ± 0.077 | V -0.587 ± 0.048 | W -0.118 ± 0.045 | Y -0.177 ± 0.1
K36: A -0.077 ± 0.042 | C -0.294 ± 0.06 | E -0.01 ± 0.044 | F -0.088 ± 0.074 | G -0.019 ± 0.039 | H -0.089 ± 0.057 | I -0.313 ± 0.1 | L -0.101 ± 0.041 | M 0.229 ± 0.044 | N -0.251 ± 0.073 | P -0.615 ± 0.093 | Q 0.034 ± 0.048 | R -0.077 ± 0.038 | S -0.048 ± 0.042 | T -0.011 ± 0.053 | W -0.181 ± 0.043 | Y -0.561 ± 0.14
R37: A 0.057 ± 0.16 | C -0.374 ± 0.21 | D -0.238 ± 0.19 | E -0.084 ± 0.18 | G -0.045 ± 0.061 | K -0.343 ± 0.21 | L 0.095 ± 0.06 | M -0.086 ± 0.22 | P -0.097 ± 0.13 | Q 0.254 ± 0.12 | S 0.123 ± 0.091 | V 0.097 ± 0.1 | W -0.065 ± 0.27
L38: C 0.11 ± 0.16 | E 0.302 ± 0.14 | I 0.063 ± 0.16 | P 0.062 ± 0.078 | R 0.087 ± 0.053 | S 0.05 ± 0.057 | T 0.264 ± 0.075 | V 0.013 ± 0.059 | W 0.243 ± 0.073 | Y -0.041 ± 0.15
R39: A -0.417 ± 0.18 | C 0.272 ± 0.21 | E -0.159 ± 0.39 | G 0.424 ± 0.11 | K -0.146 ± 0.33 | L -0.282 ± 0.32 | M 0.032 ± 0.39 | Q 0.288 ± 0.14
V41: A -0.208 ± 0.41 | E 0.079 ± 0.13 | G 0.056 ± 0.098 | I 0.195 ± 0.24 | K 0.398 ± 0.39 | L -0.181 ± 0.32 | N 0.317 ± 0.31 | R 0.003 ± 0.14 | T -0.243 ± 0.41
V42: E -0.041 ± 0.12 | G -0.265 ± 0.095 | M 0.422 ± 0.12 | P 0.176 ± 0.48 | Q -0.203 ± 0.24 | R -0.085 ± 0.088 | T 0.388 ± 0.12 | W -0.01 ± 0.12
S43: A -0.076 ± 0.097 | C -0.062 ± 0.16 | D -0.235 ± 0.23 | F -0.144 ± 0.3 | G 0.59 ± 0.08 | L -0.576 ± 0.19 | M 0.105 ± 0.11 | P -0.496 ± 0.3 | Q -0.339 ± 0.18 | R -0.174 ± 0.1 | V 0.286 ± 0.11 | W -0.889 ± 0.29
Q44: A 0.702 ± 0.075 | C 0.397 ± 0.13 | D 0.204 ± 0.18 | E 0.49 ± 0.088 | F 1.01 ± 0.16 | G 0.185 ± 0.075 | I 0.547 ± 0.37 | K 1.04 ± 0.083 | L 0.854 ± 0.079 | M 0.576 ± 0.14 | P 0.818 ± 0.099 | R 0.889 ± 0.075 | S 0.39 ± 0.12 | T 0.959 ± 0.066 | V 0.767 ± 0.072 | W 0.53 ± 0.095 | Y 1.13 ± 0.34
C45: A -0.666 ± 0.2 | D -0.658 ± 0.22 | E -1.07 ± 0.29 | F -0.356 ± 0.26 | G -0.603 ± 0.095 | L -0.867 ± 0.19 | P -1.1 ± 0.46 | Q -1 ± 0.49 | R -0.742 ± 0.13 | S -0.942 ± 0.17 | T -0.641 ± 0.26 | W -0.983 ± 0.3 | Y -1.18 ± 0.4
E46: A 0.932 ± 0.072 | C 0.271 ± 0.2 | D 0.228 ± 0.23 | G 0.085 ± 0.093 | K 0.233 ± 0.26 | L -0.116 ± 0.09 | M -0.631 ± 0.27 | P 0.996 ± 0.28 | Q 0.281 ± 0.21 | R -0.741 ± 0.16 | S 0.385 ± 0.11 | T 0.24 ± 0.22 | W -0.245 ± 0.14 | Y -0.354 ± 0.38
H47: A -0.169 ± 0.13 | C 0.345 ± 0.4 | E -0.406 ± 0.16 | K 0.075 ± 0.29 | L -0.388 ± 0.14 | M -0.061 ± 0.2 | P -0.742 ± 0.42 | Q 0.151 ± 0.15 | R -0.098 ± 0.089 | S -0.098 ± 0.14 | V 0.075 ± 0.2 | W 0.246 ± 0.13
C48: A -0.845 ± 0.16 | E -1.04 ± 0.31 | K 0.19 ± 0.34 | L -0.578 ± 0.23 | P 0.207 ± 0.23 | R -0.553 ± 0.12 | S -0.561 ± 0.43 | T -1.05 ± 0.46 | V -0.741 ± 0.18 | W -0.329 ± 0.16
R49: A -0.507 ± 0.2 | D -0.485 ± 0.46 | E -0.361 ± 0.18 | F -0.38 ± 0.2 | K -0.084 ± 0.19 | L -0.131 ± 0.11 | M -0.482 ± 0.5 | S 0.283 ± 0.14 | T -0.352 ± 0.14 | V -0.785 ± 0.19 | W -0.327 ± 0.27 | Y -0.618 ± 0.39
Q50: A -0.641 ± 0.18 | C -0.013 ± 0.24 | E -0.242 ± 0.11 | G -0.436 ± 0.094 | K -0.071 ± 0.21 | L -0.542 ± 0.16 | M 0.172 ± 0.5 | P -0.48 ± 0.24 | R 0.01 ± 0.11 | S -0.356 ± 0.24 | T -0.293 ± 0.3 | W -0.582 ± 0.19 | Y -0.312 ± 0.21
E51: A -0.394 ± 0.16 | C 0.227 ± 0.23 | D 0.187 ± 0.35 | G -0.393 ± 0.12 | H 0.675 ± 0.42 | I -0.546 ± 0.32 | L -0.119 ± 0.12 | P 0.127 ± 0.16 | Q 0.003 ± 0.41 | R -0.198 ± 0.084 | T -0.096 ± 0.18 | V -0.143 ± 0.12 | W 0.537 ± 0.098
K52: A -0.244 ± 0.14 | C 0.546 ± 0.21 | E -0.785 ± 0.23 | G -0.07 ± 0.078 | M -0.118 ± 0.28 | P -0.998 ± 0.35 | R -0.315 ± 0.1 | S -0.371 ± 0.16 | V -0.478 ± 0.22 | W -0.699 ± 0.18
L53: A -0.313 ± 0.14 | E 0.064 ± 0.14 | G -0.445 ± 0.089 | K 0.187 ± 0.34 | M -0.234 ± 0.23 | N -0.163 ± 0.45 | P -0.091 ± 0.22 | Q -0.255 ± 0.22 | R -0.327 ± 0.11 | S -0.154 ± 0.13 | T -0.196 ± 0.27 | V -0.056 ± 0.092 | W -0.676 ± 0.14
L54: A -0.41 ± 0.16 | D -0.589 ± 0.3 | E -0.866 ± 0.44 | G -0.536 ± 0.095 | H -0.503 ± 0.41 | I 0.201 ± 0.23 | R -0.664 ± 0.14 | S -0.542 ± 0.16 | T -0.226 ± 0.45 | V -0.046 ± 0.091
H55: A -0.286 ± 0.14 | C -0.053 ± 0.14 | D 0.35 ± 0.49 | E -0.392 ± 0.14 | F 0.109 ± 0.12 | G -0.126 ± 0.096 | I 0.199 ± 0.35 | K -0.04 ± 0.17 | N 0.027 ± 0.24 | P 0.106 ± 0.19 | Q -0.516 ± 0.39 | R 0.057 ± 0.09 | T 0.431 ± 0.09 | V -0.006 ± 0.14 | W -0.334 ± 0.17 | Y 0.223 ± 0.38
E56: C -0.041 ± 0.32 | F 0.467 ± 0.23 | G -0.47 ± 0.11 | H -0.161 ± 0.32 | L 0.131 ± 0.12 | M -0.22 ± 0.22 | P -0.288 ± 0.26 | Q -0.112 ± 0.14 | R -0.006 ± 0.084 | S -0.299 ± 0.16 | T -0.091 ± 0.29 | V 0.548 ± 0.082 | Y -0.01 ± 0.5
K57: A -0.487 ± 0.14 | C -0.433 ± 0.41 | D 0.159 ± 0.37 | E -0.256 ± 0.17 | F -0.16 ± 0.41 | G -0.493 ± 0.11 | I 0.297 ± 0.17 | L -0.016 ± 0.15 | N -0.237 ± 0.23 | P -0.804 ± 0.26 | Q -0.131 ± 0.14 | R 0.092 ± 0.086 | S -0.361 ± 0.15 | T 0.05 ± 0.2 | V -0.192 ± 0.12 | W -0.756 ± 0.2
L58: A 0.158 ± 0.089 | C -0.179 ± 0.28 | E 0.094 ± 0.15 | F 0.065 ± 0.28 | G 0.012 ± 0.082 | H 0.542 ± 0.28 | Q -0.146 ± 0.19 | R 0.148 ± 0.08 | S -0.254 ± 0.17 | T -0.364 ± 0.18 | V 0.544 ± 0.089 | W -0.23 ± 0.14
R59: A 0.22 ± 0.089 | C 0.514 ± 0.18 | D 0.257 ± 0.11 | E 0.386 ± 0.075 | G -0.261 ± 0.1 | K 0.419 ± 0.13 | L 0.251 ± 0.099 | N 0.609 ± 0.27 | Q 0.11 ± 0.29 | S 0.541 ± 0.13 | T 0.631 ± 0.14 | V 0.306 ± 0.12 | W 0.336 ± 0.14
F60: A -0.034 ± 0.11 | C -0.503 ± 0.29 | D -0.529 ± 0.36 | E 0.256 ± 0.1 | G -0.314 ± 0.097 | L 0.103 ± 0.11
